The text below walks through data of article PMC2172085.

In this assay the target is YFP-hDcp2 (human), Q8IU60. Description: FRET or BRET. The note with it: remark: other sources report otherwise. (In general: BRET reads energy transfer from a luciferase to a nearby fluorophore.)

B1: CFP-hDcp1a, Q9NPI6 1-582 (natural protein)
chain: MEALSRAGQEMSLAALKQHDPYITSIADLTGQVALYTFCPKANQWEKTDIEGTLFVYRRSASPYHGFTIVNRLNMHNLVEPVNKDLEFQLHEPFLLYRNASLSIYSIWFYDKNDCHRIAKLMADVVEEETRRSQQAARDKQSPSQANGCSDHRPIDILEMLSRAKDEYERNQMGDSNISSPGLQPSTQLSNLGSTETLEEMPSGSQDKSAPSGHKHLTVEELFGTSLPKEQPAVVGLDSEEMERLPGDASQKEPNSFLPFPFEQLGGAPQSETLGVPSAAHHSVQPEITTPVLITPASITQSNEKHAPTYTIPLSPVLSPTLPAEAPTAQVPPSLPRNSTMMQAVKTTPRQRSPLLNQPVPELSHASLIANQSPFRAPLNVTNTAGTSLPSVDLLQKLRLTPQHDQIQTQPLGKGAMVASFSPAAGQLATPESFIEPPSKTAAARVAASASLSNMVLAPLQSMQQNQDPEVFVQPKVLSSAIPVAGAPLVTATTTAVSSVLLAPSVFQQTVTRSSDLERKASSPSPLTIGTPESQRKPSIILSKSQLQDTLIHLIKNDSSFLSTLHEVYLQVLTKNKDNHNL
Regarding B1, the apparent FRET efficiency (one experiment, foci in the bleached region) was 17% and the average apparent FRET efficiency stood at 15%.
